From the supplement of paper PMC7125110
Fewer inactive variants are shown than the library holds.

B1: glmS ribozyme (parent)
chain: AUAAAAGCGCCAGAACUACAGAAAUGUAGUUGACGAGGAGGAGGUUUAUCGAAUUUUCGGCGGAUGCCUCCAAA

Key:
Details in all cases: with glucosamine-6-phosphate
glucosamine-6-phosphate [1] = variants of: B1; assay: self-cleavage kobs at 40 uM GlcN6P; higher = faster cleavage; RNA array
Summary of the method: (§1)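 Sequenced MiSeq chips were the platform: E. coli RNA polymerase transcribed barcoded ribozyme variants on them in situ, and a hybridised Cy3 probe tracked these at 37 °C. After glucosamine-6-phosphate (40 μM to 10 mM) in HEPES/KCl/Mg(OAc)2 buffer was flowed in, tiles were imaged over ~14 h. Signals normalised to baseline and to non-cleaving reference variants were reduced to per-tile medians and fit to one- or two-exponential decays to obtain kobs. kcat and KM were derived through weighted Michaelis–Menten fits across concentrations.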

glucosamine-6-phosphate [2] = variants of: B1; assay: self-cleavage kobs at 10000 uM GlcN6P; higher = faster cleavage; RNA array
Summary of the method: as §1

glucosamine-6-phosphate [3] = variants of: B1; assay: self-cleavage kobs at 640 uM GlcN6P; higher = faster cleavage; RNA array
Summary of the method: as §1

glucosamine-6-phosphate [4] = variants of: B1; assay: self-cleavage kobs at 2500 uM GlcN6P; higher = faster cleavage; RNA array
Summary of the method: as §1

glucosamine-6-phosphate [5] = variants of: B1; assay: self-cleavage kobs at 160 uM GlcN6P; higher = faster cleavage; RNA array
Summary of the method: as §1

AUAAAAGCCACAGAACUACAGAAAUGUAGUUGACGAGGAGGAGGUUUAUCGCAUUUUCGGUGGAUGCCUCCAAA [G9C C10A A52C C61U]
self-cleavage kobs at 40 uM GlcN6P (glucosamine-6-phosphate [1]): < 1e-05 s⁻¹
self-cleavage kobs at 10000 uM GlcN6P (glucosamine-6-phosphate [2]): < 1e-05 s⁻¹

AUAAAAGCCCCAGAACUACAGAAAUGUAGUUGACGAGGAGGAGGUUUCUCGAAUUUUCGGCGGAUGCCUCCAAA [G9C A48C]
self-cleavage kobs at 40 uM GlcN6P (glucosamine-6-phosphate [1]): < 1e-05 s⁻¹
self-cleavage kobs at 640 uM GlcN6P (glucosamine-6-phosphate [3]): < 1e-05 s⁻¹
self-cleavage kobs at 2500 uM GlcN6P (glucosamine-6-phosphate [4]): < 1e-05 s⁻¹

AUAAAAGCACCAGAACUACAGAAAUGUAGUUGACGAGGAGGAGGUUUAUCGAAUUUUCGACGGAUGCCUCCAAA [G9A G60A]
self-cleavage kobs at 40 uM GlcN6P (glucosamine-6-phosphate [1]): < 1e-05 s⁻¹
self-cleavage kobs at 640 uM GlcN6P (glucosamine-6-phosphate [3]): < 1e-05 s⁻¹

AUAAAAGCCCCAGAACUACAGAAAUGUAGUUGACGGGGAGGAGGUUUAUCGAAUUUUCGGCGGAUGCCUCCAAA [G9C A36G]
self-cleavage kobs at 40 uM GlcN6P (glucosamine-6-phosphate [1]): < 1e-05 s⁻¹
self-cleavage kobs at 640 uM GlcN6P (glucosamine-6-phosphate [3]): < 1e-05 s⁻¹
self-cleavage kobs at 10000 uM GlcN6P (glucosamine-6-phosphate [2]): < 1e-05 s⁻¹

AUAAAAGCCCCAGAACUACAGAAAUGUAGUUGACGUGGAGGAGGUUUAUCGAAUUUUCGGCGGAUGCCUCCAAA [G9C A36U]
self-cleavage kobs at 40 uM GlcN6P (glucosamine-6-phosphate [1]): < 1e-05 s⁻¹
self-cleavage kobs at 640 uM GlcN6P (glucosamine-6-phosphate [3]): < 1e-05 s⁻¹
self-cleavage kobs at 2500 uM GlcN6P (glucosamine-6-phosphate [4]): < 1e-05 s⁻¹

AUAAAAGCACCAGAACUACAGAAAUGUAGUUGACGAGGAGGACGUUUAUCGAAUUUUCGGCGGAUGCCUCCAAA [G9A G43C]
self-cleavage kobs at 40 uM GlcN6P (glucosamine-6-phosphate [1]): < 1e-05 s⁻¹

AUAAAAGCCCCAGAACUACAGAAAUGUAGUUGUCGAGGAGGAGGUUUAUCGAAUUUUCGGCGGAUGCCUCCAAA [G9C A33U]
self-cleavage kobs at 40 uM GlcN6P (glucosamine-6-phosphate [1]): < 1e-05 s⁻¹
self-cleavage kobs at 160 uM GlcN6P (glucosamine-6-phosphate [5]): < 1e-05 s⁻¹
self-cleavage kobs at 640 uM GlcN6P (glucosamine-6-phosphate [3]): < 1e-05 s⁻¹
self-cleavage kobs at 2500 uM GlcN6P (glucosamine-6-phosphate [4]): < 1e-05 s⁻¹
self-cleavage kobs at 10000 uM GlcN6P (glucosamine-6-phosphate [2]): < 1e-05 s⁻¹

AUAAAAGCACCAGAACUACAGAAAUGUAGUUGACGAGGAGGAGGUUUAUCGAAUUUUCUGCGGUCGCCUCCAAA [G9A G59U A64U U65C]
self-cleavage kobs at 40 uM GlcN6P (glucosamine-6-phosphate [1]): < 1e-05 s⁻¹
self-cleavage kobs at 10000 uM GlcN6P (glucosamine-6-phosphate [2]): < 1e-05 s⁻¹

AUAAAAGCACCAGAACUACAGAAAUGUAGUUGACGAGGAGGAGGUUGUUCGAAUUUUCGGCGGAUGCCUCCAAA [G9A U47G A48U]
self-cleavage kobs at 40 uM GlcN6P (glucosamine-6-phosphate [1]): < 1e-05 s⁻¹

AUAAAAGCCCCAGAACUACAGAAAUGUAGUUGACGAGGGGGAGGUUUAUCGAAUUUUCGGCGGAUGCCUCCAAA [G9C A39G]
self-cleavage kobs at 40 uM GlcN6P (glucosamine-6-phosphate [1]): < 1e-05 s⁻¹
self-cleavage kobs at 2500 uM GlcN6P (glucosamine-6-phosphate [4]): < 1e-05 s⁻¹
self-cleavage kobs at 10000 uM GlcN6P (glucosamine-6-phosphate [2]): < 1e-05 s⁻¹

AUAAAAGCCCCAGAACUACAGAAAUGUAGUUGACGAGGCGGAGCUUUAUCGAAUUUUCGGCGGAUGCCUCCAAA [G9C A39C G44C]
self-cleavage kobs at 40 uM GlcN6P (glucosamine-6-phosphate [1]): < 1e-05 s⁻¹

AUAAAAGCCUCAGAACUACAGAAAUGUAGUUGACGAUGAGGAGGUUUAUCGAAUUUUCGGCGGAUGCCUCCAAA [G9C C10U G37U]
self-cleavage kobs at 40 uM GlcN6P (glucosamine-6-phosphate [1]): < 1e-05 s⁻¹
self-cleavage kobs at 640 uM GlcN6P (glucosamine-6-phosphate [3]): < 1e-05 s⁻¹

AUAAAAGCCCUAGAACUACAGAAAUGUAGUUGACGAGGAGGAGGUUUAUCGAAUUUUCGGCGGAUGCCUCCAAA [G9C C11U]
self-cleavage kobs at 40 uM GlcN6P (glucosamine-6-phosphate [1]): < 1e-05 s⁻¹
self-cleavage kobs at 160 uM GlcN6P (glucosamine-6-phosphate [5]): < 1e-05 s⁻¹
self-cleavage kobs at 640 uM GlcN6P (glucosamine-6-phosphate [3]): < 1e-05 s⁻¹
self-cleavage kobs at 2500 uM GlcN6P (glucosamine-6-phosphate [4]): < 1e-05 s⁻¹
self-cleavage kobs at 10000 uM GlcN6P (glucosamine-6-phosphate [2]): < 1e-05 s⁻¹

AUAAAAGCCCCAGAACUACAGAAAUGUAGUUGACGAGGAGGAGGUUUAUCGUAUUUUCGGCGGAUGCCUCCAAA [G9C A52U]
self-cleavage kobs at 40 uM GlcN6P (glucosamine-6-phosphate [1]): < 1e-05 s⁻¹
self-cleavage kobs at 160 uM GlcN6P (glucosamine-6-phosphate [5]): < 1e-05 s⁻¹
self-cleavage kobs at 640 uM GlcN6P (glucosamine-6-phosphate [3]): < 1e-05 s⁻¹
self-cleavage kobs at 2500 uM GlcN6P (glucosamine-6-phosphate [4]): < 1e-05 s⁻¹
self-cleavage kobs at 10000 uM GlcN6P (glucosamine-6-phosphate [2]): < 1e-05 s⁻¹

AUAAAAGCACCAGAACUACAGAAAUGUAGUUGACGAGGAGGAGGUUUAUCGAAUUUGCGGCGGAUGCCUCCAAA [G9A U57G]
self-cleavage kobs at 40 uM GlcN6P (glucosamine-6-phosphate [1]): < 1e-05 s⁻¹
self-cleavage kobs at 160 uM GlcN6P (glucosamine-6-phosphate [5]): < 1e-05 s⁻¹
self-cleavage kobs at 640 uM GlcN6P (glucosamine-6-phosphate [3]): < 1e-05 s⁻¹
self-cleavage kobs at 2500 uM GlcN6P (glucosamine-6-phosphate [4]): < 1e-05 s⁻¹

AUAAAAGCCCCAGAUCUACAGAAAUGUAGUUGACGAGGAGGAGGUUUAUCGAAUUUUCGGCGGAUGCCUCCAAA [G9C A15U]
self-cleavage kobs at 40 uM GlcN6P (glucosamine-6-phosphate [1]): < 1e-05 s⁻¹
self-cleavage kobs at 160 uM GlcN6P (glucosamine-6-phosphate [5]): < 1e-05 s⁻¹
self-cleavage kobs at 640 uM GlcN6P (glucosamine-6-phosphate [3]): < 1e-05 s⁻¹
self-cleavage kobs at 2500 uM GlcN6P (glucosamine-6-phosphate [4]): < 1e-05 s⁻¹
self-cleavage kobs at 10000 uM GlcN6P (glucosamine-6-phosphate [2]): < 1e-05 s⁻¹

AUAAAAGCACCAGAACUACAGAAAUGUAGUUGACGAGGAGGAGCUUUAUCGAAUUUUCGGCGGAUGCCUCCAAA [G9A G44C]
self-cleavage kobs at 40 uM GlcN6P (glucosamine-6-phosphate [1]): < 1e-05 s⁻¹
self-cleavage kobs at 640 uM GlcN6P (glucosamine-6-phosphate [3]): < 1e-05 s⁻¹
self-cleavage kobs at 2500 uM GlcN6P (glucosamine-6-phosphate [4]): < 1e-05 s⁻¹

AUAAAAGCCCCAGAACUACAGAAAUGUAGUUGACGAGGGUGAGGUUUACCGAAUUUUCGGCGGAUGCCUCCAAA [G9C A39G G40U U49C]
self-cleavage kobs at 40 uM GlcN6P (glucosamine-6-phosphate [1]): < 1e-05 s⁻¹
self-cleavage kobs at 10000 uM GlcN6P (glucosamine-6-phosphate [2]): < 1e-05 s⁻¹

AUAAAAGCACCAGAACUACAGAAAUGUAGUUGACGAGGAUGAGGUUUAUGGAAUUUUCGGCGGAUGCCUCCAAA [G9A G40U C50G]
self-cleavage kobs at 40 uM GlcN6P (glucosamine-6-phosphate [1]): < 1e-05 s⁻¹

AUAAAAGCCGCAGAACUACAGAAAUGUAGUUGACGAGGAGGAGGUUUAUCGAAUUUUCGGCGGAUGCCUCCAAA [G9C C10G]
self-cleavage kobs at 40 uM GlcN6P (glucosamine-6-phosphate [1]): < 1e-05 s⁻¹
self-cleavage kobs at 160 uM GlcN6P (glucosamine-6-phosphate [5]): < 1e-05 s⁻¹
self-cleavage kobs at 640 uM GlcN6P (glucosamine-6-phosphate [3]): < 1e-05 s⁻¹
self-cleavage kobs at 2500 uM GlcN6P (glucosamine-6-phosphate [4]): < 1e-05 s⁻¹
self-cleavage kobs at 10000 uM GlcN6P (glucosamine-6-phosphate [2]): < 1e-05 s⁻¹

AUAAAAGCACCAGAACUACAGAAAUGUAGUGGACGAGGAGGAGGUUUAUCGAAUUUUCGGCGGAUGCGUCCAAA [G9A U31G C68G]
self-cleavage kobs at 40 uM GlcN6P (glucosamine-6-phosphate [1]): < 1e-05 s⁻¹
self-cleavage kobs at 640 uM GlcN6P (glucosamine-6-phosphate [3]): < 1e-05 s⁻¹

AUAAAAGCACCAGAACUACAGAAAUGUAGUUGACGAGGAGGAGGUUUAUCGAAUUUUCGGCAGAUGCCUCCAAA [G9A G62A]
self-cleavage kobs at 40 uM GlcN6P (glucosamine-6-phosphate [1]): < 1e-05 s⁻¹
self-cleavage kobs at 160 uM GlcN6P (glucosamine-6-phosphate [5]): < 1e-05 s⁻¹
self-cleavage kobs at 640 uM GlcN6P (glucosamine-6-phosphate [3]): < 1e-05 s⁻¹

AUAAAAGCCCCGGAACUACAGAAAUGUAGUUGACGACGAGGAGGUUCAUCGAAUUUUCGACGGAUGCCUCUAAA [G9C A12G G37C U47C G60A C71U]
self-cleavage kobs at 40 uM GlcN6P (glucosamine-6-phosphate [1]): < 1e-05 s⁻¹
self-cleavage kobs at 10000 uM GlcN6P (glucosamine-6-phosphate [2]): < 1e-05 s⁻¹

AUAAAAGCCCGAGAACUACAGAAAUGUAGUUGACGAAAAGGAGGUUUAUCGAACUUUCGGCGGGUGCCUCCAAA [G9C C11G G37A G38A U54C A64G]
self-cleavage kobs at 40 uM GlcN6P (glucosamine-6-phosphate [1]): < 1e-05 s⁻¹

AUAAAAGCCCCAGGACUACAGAAAUGUAGUUGACGAGGAGGAGGUUUAUCGAAUUUUCGGCGGAUGCCUCCAAA [G9C A14G]
self-cleavage kobs at 40 uM GlcN6P (glucosamine-6-phosphate [1]): < 1e-05 s⁻¹
self-cleavage kobs at 160 uM GlcN6P (glucosamine-6-phosphate [5]): < 1e-05 s⁻¹
self-cleavage kobs at 640 uM GlcN6P (glucosamine-6-phosphate [3]): < 1e-05 s⁻¹
self-cleavage kobs at 2500 uM GlcN6P (glucosamine-6-phosphate [4]): < 1e-05 s⁻¹
self-cleavage kobs at 10000 uM GlcN6P (glucosamine-6-phosphate [2]): < 1e-05 s⁻¹

AUAAAAGCACCAGAACUACAGAAAUGUAGUUGACGAGGAGGAGGUUUAUCGAAUUUUCGGCGCAUGCCUCCAAA [G9A G63C]
self-cleavage kobs at 40 uM GlcN6P (glucosamine-6-phosphate [1]): < 1e-05 s⁻¹
self-cleavage kobs at 10000 uM GlcN6P (glucosamine-6-phosphate [2]): < 1e-05 s⁻¹

AUAAAAGCCCCAGAACUACAGAAAUGUAGUUGACGAGGAGGUGGUUUAUCGAAUUUUCGGCGGAUGCCUCCAAA [G9C A42U]
self-cleavage kobs at 40 uM GlcN6P (glucosamine-6-phosphate [1]): < 1e-05 s⁻¹
self-cleavage kobs at 160 uM GlcN6P (glucosamine-6-phosphate [5]): < 1e-05 s⁻¹
self-cleavage kobs at 2500 uM GlcN6P (glucosamine-6-phosphate [4]): < 1e-05 s⁻¹
